Here are results for one substance from patent US6740638.

This assay addresses rat MHC class II molecules on Lewis rat splenic adherent cells (antigen presenting cells) (rat). Briefly: competition with 10 µM biotin-labeled MBP (87-99) for binding to OX-6/OX-17 positive rat splenic adherent cells, flow cytometry. Background: Flow cytometry measures light scatter and fluorescence of single cells or particles in a stream.

pIC50: −log10 of the molar value.

As a reminder, the pIC50 is −log10 of the IC50, conventionally taken in molar units.

Consider “MBP (87-99) peptide analogue with alanine at position 91 (91K>A)”, for which the pIC50 was 4.68.
